Laboratory results published in publication doi:10.1101/2020.09.01.278846 (bioRxiv, 2020).

Biological target: the molecule itself
Experiment: bead aggregation assay

B1: hs PCDH24 EC1-MAD10Fc (Fc fusion)
chain: NVAPKFLANMTSVILPEDLPVGAQAFWLVAEDQDNDPLTYGMSGPNAYFFAVTPKTGEVKLASALDYETLYTFKVTISVSDPYIQVQREMLVIVEDRNDNAPVFQNTAFSTSINETLPVGSVVFSVLAVDKDMGSAGMVVYSIEKVIPSTGDSEHLFRILANGSIVLNGSLSYNNKSAFYQLELKACDLGGMYHNTFTIQCSLPVFLSISVVDQPDLDPQFVREFYSASVAEDAAKGTSVLTVEAVDGDKGINDPVIYSISYSTRPGWFDIGADGVIRVNGSLDREQLLEADEEVQLQVTATETHLNIYGQEAKVSIWVTVRVMDVNDHKPEFYNCSLPACTFTPEEAQVNFTGYVDEHASPRIPIDDLTMVVYDPDKGSNGTFLLSLGGPDAEAFSVSPERAVGSASVQVLVRVSALVDYERQTAMAVQVVATDSVSQNFSVAMVTIHLRDINDHRPTFPQSLYVLTVPEHSATGSVVTDSIHATDPDTGAWGQITYSLLPGNGADLFQVDPVSGTVTVRNGELLDRESQAVYYLTLQATDGGNLSSSTTLQIHLLDINDNAPVVSGSYNIFVQEEEGNVSVTIQAHDNDEPGTNNSRLLFNLLPGPYSHNFSLDPDTGLLRNLGPLDREAIDPALEGRIVLTVLVSDCGEPVLGTKVNVTITVEDINDNLPIFNQSSYNFTVKEEDPGVLVGVVKAWDADQTEANNRISFSLSGSGANYFMIRGLVLGAGWAEGYLRLPPDVSLDYETQPVFNLTVSAENPDPQGGETIVDVCVNVKDVNDNPPTLDVASLRGIRVAENGSQHGQVAVVVASDVDTSAQLEIQLVNILCTKAGVDVGSLCWGWFSVAANGSVYINQSKAIDYEACDLVTLVVRACDLATDPGFQAYSNNGSLLITIEDVNDNAPYFLPENKTFVIIPELVLPNREVASVRARDDDSGNNGVILFSILRVDFISKDGATIPFQGVFSIFTSSEADVFAGSIQPVTSLDSTLQGTYQVTVQARDRPSLGPFLEATTTLNLFTVDQSYRSRLQFSTPKEEVGANRQAINAALTQATRTTVYIVDIQDIDSAARARPHSYLDAYFVFPNGSALTLDELSVMIRNDQDSLTQLLQLGLVVLGSQESQESDLSKQLIS
B1: binds.
